Assay results published in publication PMC8163871, “Structures of the human LONP1 protease reveal regulatory steps involved in protease activation” (Nature Communications, 2021).

How the values were obtained:
[1] = molecular target: the molecule itself; assay: cryo-EM structure; wild-type LONP1 2.5 mg/ml in 50 mM Tris pH 8, 75 mM KCl, 10 mM MgCl2, 1 mM TCEP, 1 mM ATPγS; substrate-free (~3.4 Å) and substrate-bound (~3.2 Å) conformations from one sample; LONP1 with itself
[2] = molecular target: the molecule itself; assay: cryo-EM structure; LONP1 2.5 mg/ml in 50 mM Tris pH 8, 75 mM KCl, 10 mM MgCl2, 1 mM TCEP, 1 mM ATPγS with 10-fold molar excess bortezomib; ~3.2 Å; LONP1 with itself
[3] = molecular target: the molecule itself; assay: cryo-EM structure; Walker B (E591A) LONP1 2.5 mg/ml in 50 mM Tris pH 8, 75 mM KCl, 10 mM MgCl2, 1 mM TCEP, 1 mM ATP; ~4.8 Å; LONP1 with itself

B1: human LONP1 (mature, lacking its N-terminal mitochondrial targeting sequence), wild type (enzyme, UniProt P36776 115-959, looked up)
chain: MTIPDVFPHLPLIAITRNPVFPRFIKIIEVKNKKLVELLRRKVRLAQPYVGVFLKRDDSNESDVVESLDEIYHTGTFAQIHEMQDLGDKLRMIVMGHRRVHISRQLEVEPEEPEAENKHKPRRKSKRGKKEAEDELSARHPAELAMEPTPELPAEVLMVEVENVVHEDFQVTEEVKALTAEIVKTIRDIIALNPLYRESVLQMMQAGQRVVDNPIYLSDMGAALTGAESHELQDVLEETNIPKRLYKALSLLKKEFELSKLQQRLGREVEEKIKQTHRKYLLQEQLKIIKKELGLEKDDKDAIEEKFRERLKELVVPKHVMDVVDEELSKLGLLDNHSSEFNVTRNYLDWLTSIPWGKYSNENLDLARAQAVLEEDHYGMEDVKKRILEFIAVSQLRGSTQGKILCFYGPPGVGKTSIARSIARALNREYFRFSVGGMTDVAEIKGHRRTYVGAMPGKIIQCLKKTKTENPLILIDEVDKIGRGYQGDPSSALLELLDPEQNANFLDHYLDVPVDLSKVLFICTANVTDTIPEPLRDRMEMINVSGYVAQEKLAIAERYLVPQARALCGLDESKAKLSSDVLTLLIKQYCRESGVRNLQKQVEKVLRKSAYKIVSGEAESVEVTPENLQDFVGKPVFTVERMYDVTPPGVVMGLAWTAMGGSTLFVETSLRRPQDKDAKGDKDGSLEVTGQLGEVMKESARIAYTFARAFLMQHAPANDYLVTSHIHLHVPEGATPKDGPSAGCTIVTALLSLAMGRPVRQNLAMTGEVSLTGKILPVGGIKEKTIAAKRAGVTCIVLPAENKKDFYDLAAFITEGLEVHFVEHYREIFDIAFPDEQAEALAVER
notes: human LONP1, mature mitochondrial-matrix form with methionine 115 as its first residue; residues ~420-947 resolved in the cryo-EM maps; pET20b-His6-LONP1; no removal of the His6 tag is described; Incubated with ATPγS for cryo-EM; also called His6-LONP1; WT LONP1; source: E. coli Rosetta 2(DE3)pLysS, purified (TALON cobalt resin, Superose 6 size exclusion)
- stoichiometry N [1]: 6

B2: LONP1^Bz: human LONP1 with bortezomib covalently attached to the catalytic serine (enzyme, UniProt P36776 115-959, looked up)
chain: MTIPDVFPHLPLIAITRNPVFPRFIKIIEVKNKKLVELLRRKVRLAQPYVGVFLKRDDSNESDVVESLDEIYHTGTFAQIHEMQDLGDKLRMIVMGHRRVHISRQLEVEPEEPEAENKHKPRRKSKRGKKEAEDELSARHPAELAMEPTPELPAEVLMVEVENVVHEDFQVTEEVKALTAEIVKTIRDIIALNPLYRESVLQMMQAGQRVVDNPIYLSDMGAALTGAESHELQDVLEETNIPKRLYKALSLLKKEFELSKLQQRLGREVEEKIKQTHRKYLLQEQLKIIKKELGLEKDDKDAIEEKFRERLKELVVPKHVMDVVDEELSKLGLLDNHSSEFNVTRNYLDWLTSIPWGKYSNENLDLARAQAVLEEDHYGMEDVKKRILEFIAVSQLRGSTQGKILCFYGPPGVGKTSIARSIARALNREYFRFSVGGMTDVAEIKGHRRTYVGAMPGKIIQCLKKTKTENPLILIDEVDKIGRGYQGDPSSALLELLDPEQNANFLDHYLDVPVDLSKVLFICTANVTDTIPEPLRDRMEMINVSGYVAQEKLAIAERYLVPQARALCGLDESKAKLSSDVLTLLIKQYCRESGVRNLQKQVEKVLRKSAYKIVSGEAESVEVTPENLQDFVGKPVFTVERMYDVTPPGVVMGLAWTAMGGSTLFVETSLRRPQDKDAKGDKDGSLEVTGQLGEVMKESARIAYTFARAFLMQHAPANDYLVTSHIHLHVPEGATPKDGPSAGCTIVTALLSLAMGRPVRQNLAMTGEVSLTGKILPVGGIKEKTIAAKRAGVTCIVLPAENKKDFYDLAAFITEGLEVHFVEHYREIFDIAFPDEQAEALAVER
modifications: bortezomib covalently attached to S855
notes: human LONP1, mature form with methionine 115 as its first residue; with ATPγS
- stoichiometry N [2]: 6

B3: Walker B LONP1 mutant (E591A) (enzyme, human, UniProt P36776 115-959, looked up)
chain: MTIPDVFPHLPLIAITRNPVFPRFIKIIEVKNKKLVELLRRKVRLAQPYVGVFLKRDDSNESDVVESLDEIYHTGTFAQIHEMQDLGDKLRMIVMGHRRVHISRQLEVEPEEPEAENKHKPRRKSKRGKKEAEDELSARHPAELAMEPTPELPAEVLMVEVENVVHEDFQVTEEVKALTAEIVKTIRDIIALNPLYRESVLQMMQAGQRVVDNPIYLSDMGAALTGAESHELQDVLEETNIPKRLYKALSLLKKEFELSKLQQRLGREVEEKIKQTHRKYLLQEQLKIIKKELGLEKDDKDAIEEKFRERLKELVVPKHVMDVVDEELSKLGLLDNHSSEFNVTRNYLDWLTSIPWGKYSNENLDLARAQAVLEEDHYGMEDVKKRILEFIAVSQLRGSTQGKILCFYGPPGVGKTSIARSIARALNREYFRFSVGGMTDVAEIKGHRRTYVGAMPGKIIQCLKKTKTENPLILIDAVDKIGRGYQGDPSSALLELLDPEQNANFLDHYLDVPVDLSKVLFICTANVTDTIPEPLRDRMEMINVSGYVAQEKLAIAERYLVPQARALCGLDESKAKLSSDVLTLLIKQYCRESGVRNLQKQVEKVLRKSAYKIVSGEAESVEVTPENLQDFVGKPVFTVERMYDVTPPGVVMGLAWTAMGGSTLFVETSLRRPQDKDAKGDKDGSLEVTGQLGEVMKESARIAYTFARAFLMQHAPANDYLVTSHIHLHVPEGATPKDGPSAGCTIVTALLSLAMGRPVRQNLAMTGEVSLTGKILPVGGIKEKTIAAKRAGVTCIVLPAENKKDFYDLAAFITEGLEVHFVEHYREIFDIAFPDEQAEALAVER
notes: human LONP1, mature form with methionine 115 as its first residue, with the Walker B mutation E591 to A591; Made by QuikChange from pET20b-His6-LONP1, expressed and purified as the wild type; Structure determined with ATP; also called WalkerB mutant LONP1; source: E. coli Rosetta 2(DE3)pLysS, purified (TALON cobalt resin, Superose 6 size exclusion)
- binding result [3]: binds
